# Measurements reported in the supplement of paper PMC9732359.
# ± gives the uncertainty stated by the source.
# Experiment: protein stability index of a GFP-peptide fusion (yeast GPS) (PSI 1-4); higher = more stable; sorted into four equal gates, so the index is relative within each strain
# Method in brief: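 Tiled 17-residue peptides from yeast proteins were fused downstream of GFP on a plasmid that also expresses Cherry, and the pooled library was carried in yeast. Mid-log cultures grown in leucine-free medium were sorted into four equal gates by GFP/Cherry fluorescence ratio. Plasmids from each gate were PCR-amplified and Illumina-sequenced, and reads were assigned to strains by barcodes. Each peptide's protein stability index is the sum, over gates, of the gate's read frequency multiplied by its gate number.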
Sequence,protein stability index (doa10∆),protein stability index (pdr5∆),protein stability index (san1∆),protein stability index (ubr1∆)
DKFPYKKLELPKYIDEL [SWP82],2.73 ± 0.074,2 ± 0.058,2.56 ± 0.064,2.83 ± 0.08
DKFRKACSSSGRETILS [SIR3],1.94 ± 0.042,2.08 ± 0.042,1.83 ± 0.073,2.64 ± 0.046
DKHLYHVLYKESKGNAF [RPL19A],3.56 ± 0.16,3.39 ± 0.089,2.96 ± 0.11,2.77 ± 0.084
DKIHARARGPMQVLTRQ [RPB2],3.16 ± 0.13,3.22 ± 0.12,2.97 ± 0.09,3.21 ± 0.19
DKINQLSVVKYLLASLK [RPN9],2.02 ± 0.16,2.15 ± 0.2,,
DKKHFNNKNKRVTGAGG [RPC53],3.15 ± 0.24,2.53 ± 0.17,3.16 ± 0.27,3.31 ± 0.075
DKKKGQNVTSETHSKKR [ITC1],3.1 ± 0.087,3.12 ± 0.076,3.16 ± 0.061,3.04 ± 0.039
DKKVTLITSEMFDAFVS [SIN4],1.56 ± 0.059,1.46 ± 0.049,1.36 ± 0.098,1.28 ± 0.042
DKLSGCYAPRPSAGPHK [RPS4A],2.2 ± 0.065,1.96 ± 0.063,1.76 ± 0.099,1.64 ± 0.041
DKLTSIQDTLRTGSQSP [MED7],2.7 ± 0.042,2.82 ± 0.045,2.69 ± 0.032,2.89 ± 0.033
DKPYLLRIVTHLAICLD [YDL116W/NUP84],1.33 ± 0.078,1.28 ± 0.08,1.32 ± 0.13,1.58 ± 0.058
DKQYRTAVATLLKELSK [SMC3],2.49 ± 0.082,2.13 ± 0.084,3.06 ± 0.061,2.72 ± 0.071
DKRFSGSLKLPNCPRPN [RPL1A],2.77 ± 0.073,3.05 ± 0.052,2.94 ± 0.051,2.6 ± 0.046
DLIADTITNSSSSSDII [YML103C/NUP188],2.89 ± 0.077,2.46 ± 0.046,2.63 ± 0.04,2.56 ± 0.044
DLIETSFTCFAQFVSNK [NUT1],2.64 ± 0.093,2.01 ± 0.075,1.92 ± 0.11,2.77 ± 0.076
DLKDILEKVVPLINVVV [BRR2],2.22 ± 0.12,1.91 ± 0.077,2.37 ± 0.15,2.51 ± 0.065
DLLPNSFAKLVPCEGKD [SMC2],2.2 ± 0.04,2.73 ± 0.038,2.46 ± 0.053,2.45 ± 0.039
DLNHVTEELQTQYATSQ [SMC2],3.11 ± 0.19,3.17 ± 0.12,3.16 ± 0.1,3.44 ± 0.2
DLNPLKTLNLFKQIKSA [RPO31],2 ± 0.16,1.37 ± 0.033,2.62 ± 0.11,2.15 ± 0.071
DLPETGFFENIETEFLL [IRR1],3.13 ± 0.075,3.18 ± 0.1,3.22 ± 0.047,3.13 ± 0.066
DLQRTQTLSEKEYQCSA [YIL149C/MLP2],2.98 ± 0.1,2.97 ± 0.091,3.11 ± 0.069,2.96 ± 0.069
DLSWSKQTDTGITHFRA [PRP8],2.85 ± 0.085,3.11 ± 0.057,3 ± 0.055,3.02 ± 0.049
DLVLGKPLADLRPLFTR [YLR335W/NUP2],2.97 ± 0.072,2.76 ± 0.11,2.84 ± 0.16,2.27 ± 0.069
DMENMADEQKRSTDVWY [ARP7],2.35 ± 0.05,2.31 ± 0.04,2.62 ± 0.053,2.55 ± 0.044
DMLKYKEDEPVVARRSN [ITC1],2.96 ± 0.1,2.42 ± 0.098,1.84 ± 0.084,1.76 ± 0.063
DNFDYFNQRDGEHEKSN [MED1],2.86 ± 0.098,3 ± 0.2,3.19 ± 0.15,3.56 ± 0.14
DNIDEKVVKAIRIYFTE [NUT1],3.12 ± 0.092,3 ± 0.061,3.04 ± 0.048,2.39 ± 0.036

Sequence,protein stability index (doa10∆),protein stability index (pdr5∆),protein stability index (san1∆),protein stability index (ubr1∆)
DNISSFHSAVENLVQGN [YCG1],3.26 ± 0.08,3 ± 0.064,3.17 ± 0.067,3.31 ± 0.11
DNMSEEQWLRQFEVSDD [SNF2],3.46 ± 0.099,3.22 ± 0.094,3.16 ± 0.12,3.36 ± 0.079
DNSESHPFIPLLKEKPN [RRP6],1.93 ± 0.066,1.93 ± 0.059,1.99 ± 0.071,1.99 ± 0.051
DNSPSEDFMDIPKPRTA [SNF2],2.57 ± 0.16,2.83 ± 0.11,,2.77 ± 0.19
DPELLRSYIFGGHVSQY [RPL5],3.16 ± 0.083,3.58 ± 0.13,3.33 ± 0.056,3.17 ± 0.14
DPESRTQSYNNQNTLKE [POP1],2.72 ± 0.069,2.69 ± 0.056,2.88 ± 0.079,2.79 ± 0.05
DPRNLVNQTGSTKKDTV [YCG1],2.9 ± 0.097,3.15 ± 0.084,2.53 ± 0.075,2.86 ± 0.039
DPSQNRLTGSLLAHKVA [RPC37],2 ± 0.05,2.15 ± 0.06,1.69 ± 0.095,2.31 ± 0.038
DQFRDVEITFGKEFGDV [RRP45],3.21 ± 0.1,3.27 ± 0.063,3.54 ± 0.086,3.18 ± 0.067
DQLIISSSANKLLQLFL [YML103C/NUP188],1.91 ± 0.063,2.17 ± 0.066,1.89 ± 0.086,2.54 ± 0.055
DQSNVQYYLSVLNQQLP [BRR2],2.96 ± 0.082,3.03 ± 0.072,3.02 ± 0.06,3.03 ± 0.06
DQTFPINCNKETIENVK [ECM29],3.17 ± 0.082,2.93 ± 0.099,3.08 ± 0.07,3.4 ± 0.088
DQVVVRGIDTLQKKVAS [RPB3],2.39 ± 0.28,3.29 ± 0.19,2.68 ± 0.28,
DQYDAERDFYHSLREYI [RPO31],3.33 ± 0.076,3 ± 0.12,3.07 ± 0.074,3.3 ± 0.091
DRHIGCVYSGLIPDGRH [PRE10],3.18 ± 0.098,3.41 ± 0.088,3.1 ± 0.062,3.54 ± 0.12
DRPGSKFHKREVVEAVT [RPL3],3.04 ± 0.15,1.96 ± 0.14,2.02 ± 0.19,2.41 ± 0.13
DRQIINEKMQLLKDIFA [SIR4],2.25 ± 0.042,2.64 ± 0.054,2.31 ± 0.058,1.92 ± 0.047
DRRKARKAYFTAPSSQR [RPL26A],2.59 ± 0.069,2.49 ± 0.091,2.76 ± 0.057,2.59 ± 0.068
DRTLPHFSKDDYSPESK [RPO21],3.07 ± 0.1,3.22 ± 0.074,2.85 ± 0.099,3.42 ± 0.093
DSDMLTKSHNTVQSWLC [NUT1],2.53 ± 0.18,2.63 ± 0.22,,2.87 ± 0.078
DSEDEDSMKDTTDMISV [YML031W/NDC1],3.17 ± 0.17,,3.2 ± 0.11,2.98 ± 0.21
DSEERDPKLEKCLNYRN [ITC1],2.85 ± 0.07,2.74 ± 0.088,2.71 ± 0.061,2.49 ± 0.038
DSENNEENSSSNGNNLP [RGR1],2.96 ± 0.061,2.96 ± 0.056,2.96 ± 0.055,3.06 ± 0.039
DSIPYPQIVKLFDISRE [ECM29],1.65 ± 0.065,1.3 ± 0.057,1.23 ± 0.073,2.08 ± 0.039
DSKLLPKNIEPPLTSQY [SWI3],2.89 ± 0.058,2.91 ± 0.049,2.92 ± 0.041,2.92 ± 0.04
DSLRKLYVDSESTSSTE [MTW1],2.86 ± 0.072,3.51 ± 0.1,3.16 ± 0.1,3 ± 0.068
